Source: a protein production outcome set (Wang et al. 2014)

assay: label from the status in PepcDB records

**Q.** For “FSIGVTGVMSAGKSTMLNAILQREILGTSVIPETANLTILRFDQNERAIVRFWNRHEWEMIAQSAQFDEGIDYFMKESLTVFGTVLHEYITQEGRTYEIPLEELSTYTSAKHPSKLCNLVKSVEIFTPLEFLDDGVEIVDTPGLDDPLTQREEITKEYLARCDVMLHLMNAAQPATQKDVDFIIDALIYQNVSRLLVILTRADSLTPQE”, which protein production is on record?
**A.** failed

**Q.** With “FTCPITKEEMKKPVKNKVCGHTYEEDAIVRMIESRQKRKKKAYCPQIGCSHTDIRKSDLIQDEALRRAIENHNKKRHRHSE” as the sequence, how does the protein production read?
**A.** not failed

**Q.** With “GDGNITTENIPVSEYDCLELEGGGMVVNYTQSDAPEGLEIKTDRNIFEKYEFNVENHKLKIRPKKEFRKHTNFRPTEFMVTANSRNLKKLAAAGSTHVNINSPLQAEEFEAGLAGSGIIQFHDTASFTNLKIEIAGSGDFVGHKVYCEELNGDMAGSNTIVLGGTVGIAEFSIAGSGTVRAFDCTMDELECKIAGSGDIEAFVVNKIKAEIAGSGSVKYKGDPQDIQKKVMGSGKIEKVE” as the sequence, how does the protein production read?
**A.** not failed

**Q.** For “GEVVLKMKVEGMTCHSCTSTIEGKIGKLQGVQRIKVSLDNQEATIVYQPHLISVEEMKKQIEAMGFPAFVKKIEGR”, which protein production is on record?
**A.** not failed

**Q.** For “GFVCDDFPKPQITVQPETQSAIKGSDVSFTCSAASSSDSPMTFAWKKDNEALQDAEMENYAHLRAQGGELMEYTTILRLRNVEFTSEGKYQCVISNHFGSSYSVKAKLTIN”, which protein production is on record?
**A.** not failed

**Q.** With “GGLTEICRKPVSPGCISSVSDWLISIGLPMYAGTLSTAGFSTLSQVPSLSHTCLQEAGITEERHIRKLLSAARLFKLPPGPEAM” as the sequence, how does the protein production read?
**A.** not failed

**Q.** With “GHMAIQRRIRRVKTVQMTTNSPIHRSGSVLEPGNWQEYDPFLLLMEDIFERGTFDVHPHRGIETVTYVISGELEHFDSKAGHSTLGPGDVQWMTAGRGVVHKEDPASGSTVHSLQLWVNLPSAYKMTEPRYQNLRSKDMPVRKEEGATIRVFSGSSKGVKAPTKNIVPVTMVEMIVEPGTTVVQDLPGHYNGFLYILEGSGVFGADNIEGKAGQALFFSRHNRGEETELNVTAREKLRLLLYAGEPVNEPVVAYGPFVMNTPEQIREAIRDYQEGRFGR” as the sequence, how does the protein production read?
**A.** not failed

**Q.** For “GIATSDNFMQAFLNVLDQCPKLEVDIPLVKSYLAQFAARAIISELVSISELAQPLESGTHFP”, which protein production is on record?
**A.** failed

**Q.** With “GKVIVLDAGHGGPDGGAVGGKDIVEKDITLEITKKVQDYLQEQGALVILTREGDYDLAQKDTKSYSRRKAEDLKKRVEIINKPDVDFFASIHLNALTSSGSKGAQTFYYRSSIENERAAKFIQAELRTSLENTNRSAKTISHVYLLKYAKTPGALIEAGFLSNVNERYMLNSEKYQQKVAAAVYRGILRYFTEKGNPPE” as the sequence, how does the protein production read?
**A.** failed

**Q.** With “GLGFMALDEDLRIIYVNSGCLRHVRRSRDELLGRVVTEVLPETQGSYFDALCRKVLATGREQQTRVDSLYSPGMTIEVTAAADSGALVVHFRDVTAE” as the sequence, how does the protein production read?
**A.** not failed

**Q.** With “GMIDGHHHLTQSFAKSLAYGEPSEIFKRIWVPLESNLNEQFVYLCTKLAALESLRGGFTTVCDAGTRSEIGMQLMVRALEETGLRCVLSLICNDGRAHSTLELRQNILENAQIFIKSYKQHKNVHPSLAISIPEVASDDMLYEVSKLCANSNIIFQVHVNEHLASVERSIIQQGMRPLEHLAKVGALGPQTLIAHATMLTPSELLLLQRTDTAVSYNPVASQWKGNAVASAHLMHELNIRFALGTDATRADGFRLLDAAEATQKLIFGIPTGDCSTGGGWMWLDHATTAGAEAVGLSQL” as the sequence, how does the protein production read?
**A.** failed

**Q.** For “GQPSNDKKNVLPDWAFGGFERPQGANPVISPIENTKFYCPMTQDYVAWESNDTFNPAATLHDGKIVVLYRAEDKSGVGIGHRTSRLGYATSSDGIHFKREKTPVFYPDNDTQKKLEWPGGCEDPRIAVTAEGLYVMTYTQWNRHIPRLAIATSRNLKDWTKHGPAFAKAYDGKFFNLGCKSGSILTEVVNGKQVIKKIDGKYFMYWGEEHVFAATSEDLVNWTPYVNTDGSLRKLFSPRDGHFDSQLTECGPPAIYTPKGIVLLYNGKNSASRGDKRYTANVYAAGQALFDANDPTRFITRLDEPFFRPMDSFEKSGQYVDGTVFIEGMVYYKDKWYLYYGCADSKVGMAIYNPKKPAAADPLP”, which protein production is on record?
**A.** not failed

**Q.** For “GQTFAGVIRGVQSYGFFVQIEALQVEGLVHVSSPKDDWYEYRSRQQRLIGRKNRRQFGLGDRVEVEIRNVDYYRQQIDLGVLPLP”, which protein production is on record?
**A.** failed

**Q.** With “GRARVKVEGVFYNPRMRFCRDLDMLVFATMDSKEYFDALSASGIRGIRAALEAGKKAVFNDVSPKAVKVIEENLRENGVSGEVINGDAAAVMRQRAFEHIDIDPFGSPAPFMDSACFSAKRYLSVTATDTAALCGSATNSGLKKYGAFAVKTDVYHEVGLRMLIGFVVREATKYEKALFPLISWVREHYYRVHFKIKKSTAMSAKVYEKMGYLAYCSTCLRKKVLGMGEGAERCECGGKFSLIGPIWLGELKQRDFAEKVAEKAEGKLRAFLEKILAEIDAPTAYSLPALAKIHSLTLPPTDVVVEELKKLGYEASRTHYCGFCVKTDADRDVVVKILRSRK” as the sequence, how does the protein production read?
**A.** failed

**Q.** With “GRGAFGVVCKAKWRAKDVAIKQIESESERKAFIVELRQLSRVNHPNIVKLYGACLNPVCLVMEYAEGGSLYNVLHGAEPLPYYTAAHAMSWCLQCSQGVAYLHSMQPKALIHRDLKPPNLLLVAGGTVLKICDFGTACDIQTHMTNNKGSAAWMAPEVFEGSNYSEKCDVFSWGIILWEVITRRKPFDEIGGPAFRIMWAVHNGTRPPLIKNLPKPIESLMTRCWSKDPSQRPSMEEIVKIMTHLMRYFPGADEPLQYPCQYSDEGQSNSATSTGSFMDIASTNTSNKSDTNMEQVPATNDTIKRLESKLLKNQAKQQ” as the sequence, how does the protein production read?
**A.** failed

**Q.** Which protein production does the source give for “GRKYLVNFSDIYYIESVDKKTFVYLADEIYQTDLRLYQLLHDLQHDGFVQISKSCLLNINVLENIRPLFNSRMEATLLNGERVIVNRRYLPDVKEALKGIQ” here?
**A.** failed

**Q.** With “GSAYTPLSEDESHRIFELVKEIDTSNQDASKSEKILQQRLDLLHQVRLRYFTPREVARLMSFPENFEFPPETTNRQKYRLLGNSINVKVVGELIKLLTIK” as the sequence, how does the protein production read?
**A.** failed
